Assay results: the Immune Epitope Database (IEDB)
pIC50, pKd: −log10 of the molar value. Values belong to the sequence of their own block, whether it stands above or below them.

Key:
[1] = target: HLA-A*02:01; assay: IEDB peptide-MHC binding, purified MHC/competitive/radioactivity; ≥ and ≤ were set here for values at or beyond the usual limits of such assays
[2] = target: HLA-A*02:01; assay: IEDB peptide-MHC binding, purified MHC/competitive/fluorescence; filed as Kd, often an IC50 or EC50 that approximates it; ≥ and ≤ were set here for values at or beyond the usual limits of such assays
[3] = target: HLA-C*07:02; assay: IEDB peptide-MHC binding, purified MHC/direct/fluorescence; filed as Kd, often an IC50 or EC50 that approximates it; ≥ and ≤ were set here for values at or beyond the usual limits of such assays
[4] = target: HLA-C*06:02; assay: as above; conditions: source organism: Influenza A virus (A/chicken/Fujian/25/00(H9N2))
[5] = target: HLA-C*05:01; assay: as above
[6] = target: HLA-B*51:01; assay: IEDB peptide-MHC binding, purified MHC/competitive/fluorescence; filed as Kd, often an IC50 or EC50 that approximates it; ≥ and ≤ were set here for values at or beyond the usual limits of such assays; conditions: source organism: Yersinia pestis Nepal516
[7] = target: HLA-B*07:02; assay: as above; conditions: source organism: Yersinia pestis Nepal516
[8] = target: HLA-C*14:02; assay: IEDB peptide-MHC binding, purified MHC/direct/fluorescence; filed as Kd, often an IC50 or EC50 that approximates it; ≥ and ≤ were set here for values at or beyond the usual limits of such assays
[9] = target: HLA-C*15:02; assay: as above
[10] = target: HLA-B*08:01; assay: IEDB peptide-MHC binding, purified MHC/competitive/fluorescence; ≥ and ≤ were set here for values at or beyond the usual limits of such assays
[11] = target: HLA-A*02:01; assay: IEDB peptide-MHC binding, purified MHC/direct/fluorescence; filed as Kd, often an IC50 or EC50 that approximates it; ≥ and ≤ were set here for values at or beyond the usual limits of such assays
[12] = target: HLA-B*58:01; assay: as above
[13] = target: HLA-B*07:02; assay: as above
[14] = target: HLA-B*15:01; assay: as above
[15] = target: HLA-A*01:01; assay: as above
[16] = target: HLA-B*27:05; assay: as above
[17] = target: HLA-B*44:02; assay: as above
[18] = target: HLA-B*39:01; assay: as above; conditions: source organism: Mycobacterium tuberculosis str. Haarlem
[19] = target: HLA-A*03:01; assay: as above
[20] = target: HLA-B*46:01; assay: as above
[21] = target: HLA-A*31:01; assay: as above
[22] = target: HLA-B*57:01; assay: as above; conditions: source organism: Mycobacterium tuberculosis str. Haarlem
[23] = target: HLA-A*24:02; assay: as above
[24] = target: HLA-A*02:01; assay: IEDB peptide-MHC binding, purified MHC/competitive/fluorescence; ≥ and ≤ were set here for values at or beyond the usual limits of such assays; conditions: source organism: Zaire ebolavirus
[25] = target: HLA-B*15:42; assay: IEDB peptide-MHC binding, purified MHC/competitive/fluorescence; filed as Kd, often an IC50 or EC50 that approximates it; ≥ and ≤ were set here for values at or beyond the usual limits of such assays; conditions: source organism: Listeria monocytogenes serotype 4b str. CLIP 80459
[26] = target: HLA-B*45:06; assay: as above; conditions: source organism: Listeria monocytogenes serotype 4b str. CLIP 80459
[27] = target: HLA-A*68:23; assay: as above; conditions: source organism: Listeria monocytogenes serotype 4b str. CLIP 80459
[28] = target: HLA-A*11:01; assay: as above; conditions: source organism: Listeria monocytogenes serotype 4b str. CLIP 80459
[29] = target: HLA-B*83:01; assay: as above; conditions: source organism: Listeria monocytogenes serotype 4b str. CLIP 80459
[30] = target: HLA-A*31:01; assay: as above; conditions: source organism: Listeria monocytogenes serotype 4b str. CLIP 80459
[31] = target: HLA-A*69:01; assay: IEDB peptide-MHC binding, purified MHC/direct/fluorescence; filed as Kd, often an IC50 or EC50 that approximates it; ≥ and ≤ were set here for values at or beyond the usual limits of such assays
[32] = target: HLA-B*15:09; assay: as above
[33] = target: HLA-A*26:01; assay: as above; conditions: source organism: Vibrio vulnificus CMCP6
[34] = target: HLA-B*40:01; assay: as above
[35] = target: HLA-A*11:01; assay: as above
[36] = target: HLA-A*68:02; assay: IEDB peptide-MHC binding, purified MHC/competitive/fluorescence; filed as Kd, often an IC50 or EC50 that approximates it; ≥ and ≤ were set here for values at or beyond the usual limits of such assays; conditions: source organism: Campylobacter jejuni subsp. jejuni 81-176
[37] = target: HLA-A*24:02; assay: IEDB peptide-MHC binding, purified MHC/competitive/fluorescence; ≥ and ≤ were set here for values at or beyond the usual limits of such assays; conditions: source organism: Zaire ebolavirus
[38] = target: HLA-B*15:01; assay: as above; conditions: source organism: Zaire ebolavirus
[39] = target: HLA-C*12:03; assay: IEDB peptide-MHC binding, purified MHC/direct/fluorescence; filed as Kd, often an IC50 or EC50 that approximates it; ≥ and ≤ were set here for values at or beyond the usual limits of such assays; conditions: source organism: Homo sapiens
[40] = target: HLA-A*02:06; assay: IEDB peptide-MHC binding, purified MHC/competitive/fluorescence; filed as Kd, often an IC50 or EC50 that approximates it; ≥ and ≤ were set here for values at or beyond the usual limits of such assays; conditions: source organism: Burkholderia orbicola
[41] = target: HLA-B*18:01; assay: IEDB peptide-MHC binding, purified MHC/direct/fluorescence; filed as Kd, often an IC50 or EC50 that approximates it; ≥ and ≤ were set here for values at or beyond the usual limits of such assays; conditions: source organism: Giardia lamblia ATCC 50803
[42] = target: HLA-B*08:02; assay: as above; conditions: source organism: Giardia lamblia ATCC 50803
[43] = source organism: Influenza A virus (A/chicken/Fujian/25/00(H9N2))
[44] = source organism: Yersinia pestis Nepal516
[45] = source organism: Mycobacterium tuberculosis str. Haarlem
[46] = source organism: Zaire ebolavirus
[47] = source organism: Listeria monocytogenes EGD-e
[48] = source organism: Vibrio cholerae
[49] = source organism: Vibrio vulnificus
[50] = source organism: Giardia lamblia ATCC 50803

Sequence: HVDIRTLED
pIC50 ([1]; source organism: Human papillomavirus 16): 4.60

Sequence: WMMAMRYPI
pKd [2, 43]: 9.70 | pKd [3, 43]: 5.74 | pKd [4]: ≤ 4.70 | pKd [5, 43]: ≤ 4.70

Sequence: RAMKALSSI
pKd [6]: 6.60 | pKd [7]: 7.90 | pKd [8, 44]: 6.38 | pKd [9, 44]: 7.77 | pKd [5, 44]: ≤ 4.70

Sequence: MLYQLLEAV
pIC50 ([10]; source organism: Vaccinia virus Copenhagen): ≤ 3.52

Sequence: SAICSVVRR
pIC50 ([1]; source organism: Hepatitis B virus subtype adw2): 5.84

pIC50 ([1]; source organism: Homo sapiens): 6.99
Sequence: KLIDRTESL

Sequence: FHARFVQAL
pKd [11, 45]: ≤ 4.70 | pKd [12, 45]: ≤ 4.70 | pKd [13, 45]: ≤ 4.70 | pKd [14, 45]: ≤ 4.70 | pKd [15, 45]: ≤ 4.70 | pKd [16, 45]: ≤ 4.70 | pKd [17, 45]: ≤ 4.70 | pKd [18]: 7.25 | pKd [19, 45]: ≤ 4.70 | pKd [20, 45]: ≤ 4.70 | pKd [21, 45]: ≤ 4.70 | pKd [22]: ≤ 4.70

Sequence: ISPRNYFTF
pKd ([23]; source organism: Toxoplasma gondii): ≥ 9.00

Sequence: TVFYNIPPM
pKd ([8]; source organism: Human herpesvirus 4 strain B95-8): 8.52

Sequence: RGVRLHPLA
pIC50 [24]: ≤ 4.06 | pIC50 [10, 46]: ≤ 3.62

Sequence: KAAETYHVF
pKd ([12]; source organism: Listeria monocytogenes): 7.66 | pKd [9, 47]: 7.44 | pKd [5, 47]: ≤ 4.70

Sequence: YTYDLAEYR
pKd [25]: ≤ 5.30 | pKd [26]: ≤ 5.30 | pKd [27]: ≥ 10.00 | pKd [28]: 7.67 | pKd [29]: ≤ 5.30 | pKd [30]: 8.08

Sequence: KLTEEIIKL
pKd [11, 48]: 7.38 | pKd ([9]; source organism: Vibrio cholerae MAK 757): ≤ 4.70 | pKd [31, 48]: 5.66

Sequence: QSDIAGAIH
pKd ([32]; source organism: Vibrio vulnificus CMCP6): ≤ 4.70 | pKd [11, 49]: ≤ 4.70 | pKd [23, 49]: ≤ 4.70 | pKd [33]: ≤ 4.70 | pKd [34, 49]: ≤ 4.70 | pKd [12, 49]: ≤ 4.70 | pKd [13, 49]: ≤ 4.70 | pKd [14, 49]: ≤ 4.70 | pKd [15, 49]: 5.78 | pKd [16, 49]: ≤ 4.70 | pKd [17, 49]: ≤ 4.70 | pKd [35, 49]: ≤ 4.70 | pKd [19, 49]: ≤ 4.70 | pKd [20, 49]: ≤ 4.70 | pKd [31, 49]: ≤ 4.70 | pKd [21, 49]: ≤ 4.70

Sequence: LYLYVPFLW
pKd ([23]; source organism: Bacillus cereus 03BB108): 7.26

Sequence: KRVDWSVEY
pKd ([3]; source organism: SARS-CoV1): 6.58 | pKd ([14]; source organism: SARS-CoV1): 5.57 | pKd ([16]; source organism: SARS-CoV1): 6.59 | pKd ([35]; source organism: SARS-CoV1): 5.06

Sequence: SVAHSAYEL
pKd [36]: ≥ 10.00

Sequence: SGKNIKRTL
pIC50 [10, 46]: 4.20

Sequence: VLEKGIPTL
pIC50 ([1]; source organism: Rhinovirus A): 6.70

Sequence: SFKAALSSL
pIC50 [24]: ≤ 3.45 | pIC50 [37]: 6.18 | pIC50 [38]: 4.82 | pIC50 [10, 46]: 4.34

pKd ([3]; source organism: Saccharomyces cerevisiae): 7.28
Sequence: VRKCLQLIF

Sequence: FLPNDFFPSV
pIC50 ([1]; source organism: Hepatitis B virus): 8.96

pKd ([3]; source organism: Homo sapiens): 6.45 | pKd [39]: 6.54
Sequence: FLLENAAYL

Sequence: MQACPVDAI
pKd ([2]; source organism: Burkholderia orbicola): 8.07 | pKd [40]: 8.89

Sequence: MIYELCTFR
pKd [32, 50]: ≤ 4.70 | pKd [11, 50]: ≤ 4.70 | pKd [34, 50]: ≤ 4.70 | pKd [12, 50]: ≤ 4.70 | pKd [13, 50]: ≤ 4.70 | pKd [14, 50]: ≤ 4.70 | pKd [41]: ≤ 4.70 | pKd [15, 50]: ≤ 4.70 | pKd [42]: ≤ 4.70 | pKd [16, 50]: ≤ 4.70 | pKd [17, 50]: ≤ 4.70 | pKd [19, 50]: 6.07
